Reference: paper PMC10952193, “Structure and Function of the α‐Hydroxylation Bimodule of the Mupirocin Polyketide Synthase” (Angewandte Chemie (Weinheim an Der Bergstrasse, Germany), 2023)

Assays:
[1] = target: the molecule itself; assay: SEC; size exclusion chromatography of purified MupA (lower concentrations)
[2] = target: the molecule itself; assay: SEC; size exclusion chromatography of purified MupA at higher concentrations (>2 mg/ml)
[3] = target: the molecule itself; assay: not stated; purification of recombinant Fre (Figure S6); how the dimer was shown is not told in the main text

Row | Protein | stoichiometry N [1] | stoichiometry N [2] | stoichiometry N [3]
1 | MupA (enzyme, Pseudomonas fluorescens, UniProt Q9AH80 1-369, looked up, MupA, trans-acting flavin-dependent monooxygenase of the mupirocin biosynthetic gene cluster of Pseudomonas fluorescens; Dimeric by SEC; a dimer of dimers above 2 mg/ml; Used unlabelled in the NMR experiments; also called flavin-dependent monooxygenase (FMO); FMNH2-dependent oxygenase) MSVEQLLGLGVTNAARAPRQPAFSLLFFSDVREDISASEKYEFARSLTLFGDAQGFEAVYFPERHFHEFGAIYPDSAVMAASLIPQTRHIRFRTAGISLPLHHPARVVESWSMNDVLSGGRVDLGFGSGWSRPDFLLAPHAYEDRREVMWQRIEQVRRLWAGERLSFPGPGGDPVSVVTFPRPLQTSLNVWILVAQNTESFIAAGKAGFNVFTMLYGIDLPDLAEKIGLYRQARRDAGFDPASGRVTLMLHTLVGPDSAWVRRAVEAPFKDYIRSSLVAHMKARATPDGRPLDATEQENVLQYAFERYYETGALFGTVDEVRYRVGQVLETGVDEIACLMDFGVDYAVVHQSLPYLEQLVASFQERSAQ | 2 | 4 | 
2 | Fre (enzyme, E. coli, UniProt P0AEN1 1-233, looked up, Fre, NAD(P)H:flavin oxidoreductase of E. coli, GenBank M61182; also called oxidoreductase Fre; E. coli Fre; source: E. coli, recombinant, overexpressed, purified) MTTLSCKVTSVEAITDTVYRVRIVPDAAFSFRAGQYLMVVMDERDKRPFSMASTPDEKGFIELHIGASEINLYAKAVMDRILKDHQIVVDIPHGEAWLRDDEERPMILIAGGTGFSYARSILLTALARNPNRDITIYWGGREEQHLYDLCELEALSLKHPGLQVVPVVEQPEAGWRGRTGTVLTAVLQDHGTLAEHDIYIAGRFEMAKIARDLFCSERNAREDRLFGDAFAFI |  |  | 2
